Usually EC50 stands for the concentration that produces a half-maximal response.

Like-named read-outs stand apart in the source and are kept apart here.

Test [1] addresses T1, mucin domain-deleted Sudan GP (GPdMuc) (Sudan virus (SUDV), UniProt Q7T9D9 33-632).
T1 construct: also called Sudan GPdMuc; GP(S)dMuc
The test is described as follows: BLI competition on Sudan GPdMuc (lower table); competitor 16F6.

The target of test [2] is T1, mucin domain-deleted Sudan GP (GPdMuc). The test is described as follows: BLI competition on Sudan GPdMuc (lower table); competitor mAb166.
For test [3] the target is unchanged. In words: BLI competition on Sudan GPdMuc (lower table); competitor 316L.
Test [4] shares this target. In words: ELISA on coated GP. Background: An ELISA detects its analyte on a solid surface through an enzyme-linked reagent.
Test [5] shares this target. The test is described as follows: BLI competition on Sudan GPdMuc (lower table); competitor 15H10.
Test [6] shares this target. In words: ELISA on coated GP. The source holds these as a separate data set.
For test [7], the target named is T2, mucin domain-deleted Zaire GP (GPdMuc) (Ebola (Zaire) virus (EBOV), UniProt Q05320 33-632).
T2 construct: also called Zaire GPdMuc; GP(Z)dMuc
The test is described as follows: ELISA on coated GP.

B1: antibody 102S (antibody, V domains shown)
VH: EVQLVESGGGLVQPGGSLRLSCSASGFTFHSYDMNWARQAPGKGLEWVSEISSSGQSKNYADSVRGRFTISRDNAKNSLYLQINSLRSEDTAVYYCARVGFVAKFGSDFSITHGTYYLDYWGQGTLVTVSS
VL: QLVLTQSPATLSLSPGERATLSCRASQSVSNYLAWYQQKPGQAPRLLIYDASNRAPGVPARFSGSGSGTDFSLTISSLEPEDFAVYYCLQRSNWPPWTFGQGTKVEIK
Consider B1, for which the “% inhibition of binding” value in test [1] worked out at 19.4%; in test [2], 78.2%; in test [3] it was 10.3%; in test [5], 11.9%. In test [4], this molecule displayed an EC50 of 0.09 µg/mL.

B2: antibody 335S (antibody, V domains shown)
VH: EVQLVESGGGVVQPGRSLRLSCAASGFSFSNYAMHWVRQAPGKGLEWVAVTWYDGSSKYHADSVKGRFTISRDNSKNTLYLQMNSLRAEDTAVYYCARWGMGIVASPGNVLNYYYFMDVWGQGTTVIVSS
VL: SYELTQPPSVSVSPGQTARITCSGNPLPKKHTYWYQQKPGQAPVLMIYKDSERPSRIPERFSGSSSGTTVTLTISGVQAEDEADYYCQSADSTGIVVFGGGTKLTVL
Take B2: the “% inhibition of binding” value in test [1] amounted to 8.17%; in test [2], 80%; in test [3] it was 1.49%; in test [5], 8.78%. For the same molecule, the midpoint of the response in test [4], the EC50, lay at 0.02 µg/mL.

B3: antibody 191L (antibody, V domains shown)
VH: EVQLVESGGGLVQPGGSLRLSCAASGFTFSSYGIHWVRQAPGKGLEWVAIISYDGNKKFHADSVKDRFTISRDNSKNMLYLQMNNLKLEDTAVYYCARAYDSGYFAGSVFYYWGQGVLVTVSS
VL: EVVFTQPHSVSGSPGQTVTISCTRSSGSIDSEYVQWYQQRPGNAPTTVIYKDNQRPSGVPDRFSGSIDSSSNSASLAISGLKSEDEADYYCQSADGNYHPVFGEGTRLTVL
For the molecule B3, the EC50 in test [6] worked out at 1.74 µg/mL; in test [7], 0.01 µg/mL.

B4: antibody 365S (antibody, V domains shown)
VH: EVQLVESGGGLVQPGGSLRLSCAASGLTFSAYEMNWVRQAPGKGLEWVSHITTSGSAIYYADSVKGRFTISRDNAKNSLHLQMNRLRADDTAVYFCARDSTIVQCSGTSCHVSTYSYMDVWGKGTTVTVSS
VL: EIVLTQSPATLSLSPGERATLSCRASQSVTTYLAWYQHKPGQAPRLLIYDASKRATGIPARFSGSGSGTDFTLTISSLEPEDFAVYHCQQRSSWPPITFGQGTRLEIK
On to B4, for which the “% inhibition of binding” value is 12% in test [1], 84.2% in test [2], 5.16% in test [3] and 9.47% in test [5]. A half-maximal response in test [4] (EC50) required 0.06 µg/mL.

B5: antibody 206L (antibody, V domains shown)
VH: EVQLVESGGGVVQPGGSLRLSCAASGFTFDDYAMHWVRQAPGKGLEWVSGISWSGGNTYYADSVKGRFTVSRENAKNSLYLQMNRLRAEDTAFYNCARTSQGGAVVFSAPNYWGQGVLVTVSS
VL: QSVLTQAPSVSGAPGQRVTISCTGSSSNIGGYYVQWYQQLPGRAPKLLIYENNKRPSGVSDRFSGSRSASSASLTITGLQSEDEADYYCQSYDSRLNGYIFGGGTRLTVL
As for B5, the values for the EC50 in test [6] and in test [7] were 0.2 µg/mL and 0.01 µg/mL, respectively.

B6: antibody 314L (antibody, V domains shown)
VH: EERLVESGGGLVQPGGSLRLSCAASGFTFGDYAMHWVRQVPGKSLEWLSGISWSGYTTYSADSVKGRFTISRDNAKNSLYLQMNRLRPEDTGLYYCVTLIGAIGIKDSLDVWGRGVLVTVSS
VL: EVVFTQPHSVSGSPGQMVTISCTRSSGTIDNSYVYWHQQRPGSAPTTVIYNDDQRPSGVPDRFSGSIDSSSNSASLTISGLKSEDEADYYCQSYDSSGWVFGGGTRLTVL
Take B6: the EC50 in test [6] turned out to be 0.31 µg/mL; in test [7] it was 2.6 µg/mL.

B7: antibody 578S (antibody, V domains shown)
VH: EVQLVESGGGVVQPGRSLRLSCAASGFTFSSYELHWVRQAPGKGLEWVAVISYDGSSKYYADSLKGRFTISRDNSKNTLSLQMNSLRAEDTAMYYCVRQSEAYCSDGRCDWRRALDIWGQGTMVTVSP
VL: DIQMTQSPSSLSASVGDRVTITCQASQDIKNYLNWYQQKPGKAPKLLIYDVSKLETGVPSRFSGSGSGTDFSFTISSLQPEDIATYYCQQYDNLPSYTFGQGTKLEIK
As to B7, the “% inhibition of binding” value in test [1] was 11.1%; in test [2], 86.6%; in test [3], 7.8%; in test [5], 7.51%. In test [4], this molecule came in with a concentration giving a half-maximal response (EC50) of 0.09 µg/mL.

B8: antibody 405S (antibody, V domains shown)
VH: EVQLVESGGGLIQPGGSLRLSCAASGFTVSSHYMSWVRQAPGKGLEWVSGIYSGGRTHYADSVKGRFTISRDNSKNTLYLQMNSLRADDTAVYSCARGTLLYLYGMDVWGQGTTVTVSS
VL: QSVLTQPPSVSAAPGQRVTISCTGSSSNIGAGYNVHWYQQLPGAAPKLLIYGNTNRPSGVPDRFSGSKSGTSASLAITGLQAEDEADYYCQSFDSSLSGVFGTGTKVTVL
Turning to B8, the “% inhibition of binding” value in test [1] is 10.1%; in test [2], 84.1%; in test [3], 7.24%; in test [5], 11.1%. In addition, the EC50 in test [4] came to 0.04 µg/mL.

B9: antibody 310L (antibody, V domains shown)
VH: EMQLVESGGGLVQPGGSLRLSCAASGFTFDAYAMHWVRQRPGKGLEWISGIIWSGRTTYYADSVKGRFTFSRDNSKNSLYLEMNSLKPEDTALYYCAKDSWNYGVYNSLDVWGRGILVTVSS
VL: QSVLTQPPSVSGAPGQRVTISCTGSSSNVGPHYVSWYQHLPGTTPKLLIFQDNKRPSGVSDRFSGSKSASSASLTITGLQTEDEADYYCLSYDSSLNVYIFGSGTRLTVL
B9: the values for the EC50 in test [6] and in test [7] were 0.34 µg/mL and 0.01 µg/mL, respectively.

B10: antibody 382S (antibody, V domains shown)
VH: QVQLVQSGAEVKKPGSSVKVSCKASGGTFSNYGISWVRQAPGQGLEWMGRNIPIIGIANYAQKFQDRVTITADKSTSTVFMELRSLRYEDTAVYYCARDPLAARRGNWFDPWGQGTLVTVSS
VL: DIQMTQSPSTLSASVGDRVTITCRASQSVSSWLAWYQQKPGKAPKLLIYDASTLQSGVPSRFSGSGSGTEFTLTISSLQPDDFATYYCQQYNSYSYTFGQGTKLEIK
For B10, the “% inhibition of binding” value in test [1] worked out at 13.6%; in test [2], 84.9%; in test [3], 10.7%; in test [5], 17.6%. The same molecule came in with an EC50 in test [4] of 0.26 µg/mL.

B11: antibody 285S (antibody, V domains shown)
VH: QVQLVQSGAEVKKPGSSVKVSCKASGGTFSTYAITWVRQAPGQGLEWMGRIIPILRVANYAQKFQGRVTITADSSTSTAYMELSSLRSEDTAVYYCANLLAYCGGDCRSDYWGQGTLVTVSS
VL: EIVLTQSPGTLSLSPGERATLSCRASQSVKNSYLAWYHQKPGQAPRLLIYGASSRATGIPDRFSGSGSGTDFTLTISRLEPEDFAVYYCQQYGSSLWTFGQGTKVDVK
Turning to B11, the “% inhibition of binding” value is 3.29% in test [1], 64.6% in test [2], -6.78% in test [3] and 7.47% in test [5]. In test [4], this molecule gave an EC50 of 0.02 µg/mL.

B12: antibody 231L (antibody, V domains shown)
VH: EVQLVESGGGLVQPGGSLRLSCAASAFTFDDYAMHWVRQAPGKGLEWVSGITWSGLSTYYADSVKGRFTISRDNAKNSLYLQMNSLRVEDTALYYCAKSGNNSPFSGLDSWGQGAVVTVSS
VL: QSVLTQPPSVSGAPGQRVTVSCTGSSSNIGAGSYVQWYQQLPGTAPKLLIYENNKRPSGVSDRFSGSKSGTSASLTITGLQSEDEADYYCQSYDSSLNAYIFGAGTRLTVL
As for B12, the EC50 in test [6] came out at 0.02 µg/mL; in test [7], 0.01 µg/mL.

(Values after patent US20260209316A1 (US Dept. of Health and Human Services, published 2026).)
